Target: CCR5 (UniProt P51681)
Test: cell-based or functional assay

Chain of CCR5 (P51681 whole entry): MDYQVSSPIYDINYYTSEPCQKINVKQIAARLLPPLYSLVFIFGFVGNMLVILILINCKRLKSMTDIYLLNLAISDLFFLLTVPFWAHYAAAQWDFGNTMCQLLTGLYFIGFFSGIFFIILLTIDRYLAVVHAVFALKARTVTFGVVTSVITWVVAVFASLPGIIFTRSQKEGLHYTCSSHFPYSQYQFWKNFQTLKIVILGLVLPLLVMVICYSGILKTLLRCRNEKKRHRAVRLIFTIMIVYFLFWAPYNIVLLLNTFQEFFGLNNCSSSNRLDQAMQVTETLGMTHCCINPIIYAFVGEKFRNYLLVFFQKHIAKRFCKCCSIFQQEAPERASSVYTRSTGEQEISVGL

aminooxypentane(AOP)-RANTES (from UniProt P13501 24-91) (ligand)
IC50, R5-tropic envelope-mediated cell fusion assay: 3 nM
